In patent publication US20250163127A1:
Positions count from the first letter of the chain named. Names and notes keep the numbering of the source. One block for each binder: values may come before it.

How the values were obtained:
[1] = molecular target: human PD-1 (human) (UniProt Q15116)
[2] = molecular target: CD28 (human) (UniProt P10747); assay: flow cytometry, transfected cells
[3] = molecular target: CTLA-4 (Homo sapiens (Human)) (UniProt P16410); assay: flow cytometry, transfected cells
[4] = substrate: ICOS (Homo sapiens (Human)) (UniProt Q9Y6W8); assay: flow cytometry, transfected cells
Sequence of ICOS (Homo sapiens (Human)) (Q9Y6W8 21-199 limits assumed): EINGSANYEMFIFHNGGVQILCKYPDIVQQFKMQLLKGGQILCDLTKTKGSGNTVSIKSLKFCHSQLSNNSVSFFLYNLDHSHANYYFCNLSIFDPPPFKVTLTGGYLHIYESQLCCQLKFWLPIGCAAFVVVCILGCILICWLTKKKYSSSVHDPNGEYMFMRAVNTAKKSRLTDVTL

Sequence of CTLA-4 (Homo sapiens (Human)) (P16410 36-223): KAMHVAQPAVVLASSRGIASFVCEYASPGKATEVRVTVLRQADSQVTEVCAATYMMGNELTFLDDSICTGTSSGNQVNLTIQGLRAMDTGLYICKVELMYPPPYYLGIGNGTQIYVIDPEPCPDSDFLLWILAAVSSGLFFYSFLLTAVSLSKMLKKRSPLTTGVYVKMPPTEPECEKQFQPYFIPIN
Sequence of human PD-1 (human) (Q15116 25-288): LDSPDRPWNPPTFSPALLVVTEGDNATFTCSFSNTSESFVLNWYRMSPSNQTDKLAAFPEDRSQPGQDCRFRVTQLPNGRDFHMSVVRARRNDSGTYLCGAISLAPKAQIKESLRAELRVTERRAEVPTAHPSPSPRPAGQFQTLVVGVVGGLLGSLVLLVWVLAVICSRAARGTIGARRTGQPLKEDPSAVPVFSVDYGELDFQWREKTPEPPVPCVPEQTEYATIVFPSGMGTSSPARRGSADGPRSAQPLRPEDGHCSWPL

- IFN gamma levels pg/mL (MLR) [1]: 1220 pg/mL
B1: variant PD-L2 IgV I13V/H15Q/Q72H/R76G/I86T Fc fusion (Fc fusion)
chain: LFTVTVPKELYIVEQGSNVTLECNFDTGSHVNLGAITASLQKVENDTSPHRERATLLEEQLPLGKASFHIPHVQVGDEGQYQCIITYGVAWDYKYLTLKVKA

- IFN gamma levels pg/mL (MLR) [1]: 1470 pg/mL
B2: variant PD-L2 IgV I13V/H15Q/L33F/T47A/Q82R/V89D Fc fusion (Fc fusion)
chain: B1 chain with L33F, T47A, H72Q, G76R, Q82R, T86I, V89D

- IFN gamma levels pg/mL (MLR) [1]: 836 pg/mL
B3: variant PD-L2 IgV I13V/H15Q/T47A/E58G/S67L/Q82R/V89D Fc fusion (Fc fusion)
chain: B1 chain with T47A, E58G, S67L, H72Q, G76R, Q82R, T86I, V89D

- IFN gamma levels pg/mL (MLR) [1]: 941 pg/mL
B4: variant PD-L2 IgV H15Q/S39I/E44D/Q72H/V75G/R76G/Q82R/V89D Fc fusion (Fc fusion)
chain: B1 chain with V13I, S39I, E44D, V75G, Q82R, T86I, V89D

- IFN gamma levels pg/mL (MLR) [1]: 1560 pg/mL
B5: variant PD-L2 IgV I13V/H15Q/T47A/S67L/Q72H/R76G/Q82R/V89D Fc fusion (Fc fusion)
chain: B1 chain with T47A, S67L, Q82R, T86I, V89D

- IFN gamma levels pg/mL (MLR) [1]: 1270 pg/mL
B6: variant PD-L2 IgV I13V/H15Q/E44V/T47A/Q82R/V89D Fc fusion (Fc fusion)
chain: B1 chain with E44V, T47A, H72Q, G76R, Q82R, T86I, V89D

- IFN gamma levels pg/mL (MLR) [1]: 1500 pg/mL
B7: variant PD-L2 IgV H15Q/L33H/S67L/R76G/Q82R/V89D Fc fusion (Fc fusion)
chain: B1 chain with V13I, L33H, S67L, H72Q, Q82R, T86I, V89D

- IFN gamma levels pg/mL (MLR) [1]: 1090 pg/mL
B8: variant PD-L2 IgV I13V/H15Q/T47A/Q72H/R76G/I86T Fc fusion (Fc fusion)
chain: B1 chain with T47A

- IFN gamma levels pg/mL (MLR) [1]: 1070 pg/mL
B9: variant PD-L2 IgV H15Q/N18D/T47A/Q72H/V73A/R76G/I86T/V89D Fc fusion (Fc fusion)
chain: B1 chain with V13I, N18D, T47A, V73A, V89D

- IFN gamma levels pg/mL (MLR) [1]: 1100 pg/mL
B10: variant PD-L2 IgV H15Q/T47A/S67L/R76G/Q82R/V89D Fc fusion (Fc fusion)
chain: B1 chain with V13I, T47A, S67L, H72Q, Q82R, T86I, V89D

- IFN gamma levels pg/mL (MLR) [1]: 1170 pg/mL
B11: variant PD-L2 IgV F2L/H15Q/D46E/T47A/Q72H/R76G/Q82R/V89D Fc fusion (Fc fusion)
chain: B1 chain with F2L, V13I, D46E, T47A, Q82R, T86I, V89D

- IFN gamma levels pg/mL (MLR) [1]: 1200 pg/mL
B12: variant PD-L2 IgV H15Q/T47A/S67L/Q82R/V89D Fc fusion (Fc fusion)
chain: B1 chain with V13I, T47A, S67L, H72Q, G76R, Q82R, T86I, V89D

- MFI [2]: 569 MFI
- MFI parental ratio [2]: 0.38 fold
- MFI [3]: 640 MFI
- MFI parental ratio [3]: 0.17 fold
- MFI [4]: 21400 MFI
- MFI parental ratio [4]: 0.58 fold
B13: ICOSL ECD-Fc N84Q/N119Q/N207Q (Fc fusion)
chain: DTQEKEVRAMVGSDVELSCACPEGSRFDLNDVYVYWQTSESKTVVTYHIPQNSSLENVDSRYRNRALMSPAGMLRGDFSLRLFQVTPQDEQKFHCLVLSQSLGFQEVLSVEVTLHVAAQFSVPVVSAPHSPSQDELTFTCTSINGYPRPNVYWINKTDNSLLDQALQNDTVFLNMRGLYDVVSVLRIARTPSVNIGCCIENVLLQQQLTVGSQTGNDIGERDKITENPVSTGEKNAAT

- MFI [3]: 3300 MFI
B14: ICOSL ECD-Fc N52Q/N84Q/N119Q/N168Q (Fc fusion)
chain: B13 chain with N52Q, N168Q, Q207N

- MFI [2]: 159000 MFI
- MFI ratio to WT (ΔWT) [2]: 7.1 fold
- MFI [3]: 321000 MFI
- MFI ratio to WT (ΔWT) [3]: 0.97 fold
- MFI [4]: 305000 MFI
- MFI ratio to WT (ΔWT) [4]: 1.44 fold
B15: ICOSL-Fc N52A/N57H/Q100S (Fc fusion)
chain: B13 chain with N52A, N57H, Q84N, Q100S, Q119N, Q207N

- MFI [2]: 147000 MFI
- MFI ratio to WT (ΔWT) [2]: 6.6 fold
- MFI [3]: 320000 MFI
- MFI ratio to WT (ΔWT) [3]: 0.97 fold
- MFI [4]: 261000 MFI
- MFI ratio to WT (ΔWT) [4]: 1.23 fold
B16: ICOSL-Fc N52A/N57Y/Q100A (Fc fusion)
chain: B13 chain with N52A, N57Y, Q84N, Q100A, Q119N, Q207N

- MFI [2]: 157000 MFI
- MFI ratio to WT (ΔWT) [2]: 7 fold
- MFI [3]: 255000 MFI
- MFI ratio to WT (ΔWT) [3]: 0.77 fold
- MFI [4]: 242000 MFI
- MFI ratio to WT (ΔWT) [4]: 1.14 fold
B17: ICOSL-Fc N52A/N57F/Q100S (Fc fusion)
chain: B13 chain with N52A, N57F, Q84N, Q100S, Q119N, Q207N
